Results as given in patent publication US20130331317A1 (NEW YORK UNIVERSITY, published 2013).

Legend:
[1] = molecular target: binary complex of FGFR1c ligand-binding domain with murine αKlotho ectodomain (murine;human) (UniProt O35082); test: SPR
[2] = molecular target: T1, ligand-binding domain of human FGFR1c (D142 to R365) (human, UniProt P11362 142-365); test: SPR
T1 chain: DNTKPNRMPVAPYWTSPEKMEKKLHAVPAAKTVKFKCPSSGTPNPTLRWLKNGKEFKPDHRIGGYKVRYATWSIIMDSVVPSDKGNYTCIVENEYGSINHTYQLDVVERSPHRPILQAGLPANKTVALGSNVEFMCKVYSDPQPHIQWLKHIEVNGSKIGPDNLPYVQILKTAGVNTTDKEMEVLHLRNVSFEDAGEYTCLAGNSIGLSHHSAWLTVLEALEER

[3] = molecular target: T2, ligand-binding domain of human FGFR1c (D142 to R365) (human, UniProt P11362 142-365); test: SPR; increasing concentrations of FGFR1c ligand-binding domain passed over immobilised FGF21
T2 construct: range 142-365
T2 sequence (looked up): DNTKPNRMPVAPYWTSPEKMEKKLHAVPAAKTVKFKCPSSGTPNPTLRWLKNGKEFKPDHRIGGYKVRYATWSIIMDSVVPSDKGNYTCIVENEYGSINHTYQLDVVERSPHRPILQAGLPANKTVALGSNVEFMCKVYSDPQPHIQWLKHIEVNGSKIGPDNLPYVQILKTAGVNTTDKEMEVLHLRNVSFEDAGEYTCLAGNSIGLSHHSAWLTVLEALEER
From the text: (§1) FIGS. 10A-10D show overlays of SPR sensorgrams illustrating binding of FGFR1c to FGF2 (FIG. 10A), FGF19 (FIG. 10B), FGF21 (FIG. 10C), and FGF23 (FIG. 10D), and fitted saturation binding curves. Increasing concentrations of FGFR1c ligand-binding domain were passed over a biosensor chip containing immobilized FGF2, FGF19, FGF21, or FGF23. […] Increasing concentrations of αKlotho-FGFR1c complex were passed over a biosensor chip containing immobilized FGF23. […] FGF23^C-tail was immobilized on a biosensor chip and increasing concentrations of FGFR1c ligand-binding domain were passed over the chip. Dissociation constants (KDs) given in FIGS. 10A-10E were derived from the saturation binding curves.
(§2) Surface plasmon resonance (SPR) experiments were performed on a Biacore 2000 instrument (Biacore AB), and the interactions were studied at 25° C. in HBS-EP buffer (10 mM HEPES-NaOH, pH 7.4, 150 mM NaCl, 3 mM EDTA, 0.005% (v/v) polysorbate 20). To study endocrine FGF-heparin interactions, a heparin chip was prepared by immobilizing biotinylated heparin (Sigma-Aldrich) on flow channels of a research-grade streptavidin chip (Biacore AB). The coupling density was ˜5 fmol mm⁻² of flow channel. To measure binding of chimeric FGF2 proteins to heparin, biotinylated heparin was coupled to a streptavidin chip at an approximately 4-fold lower density as judged based on the binding responses obtained for FGF1. […]

[4] = molecular target: T3, binary complex of FGFR1c ligand-binding domain with murine βKlotho ectodomain (murine; human, UniProt P11362 142-365); test: SPR competition; FGF21 in solution mixed with βKlotho-FGFR1c complex, passed over immobilised FGF21
T3 construct: range 142-365; also called βKlotho-FGFR1c complex; βKlotho-FGFR1c; not shown: C-terminal FLAG tag
T3 sequence 1: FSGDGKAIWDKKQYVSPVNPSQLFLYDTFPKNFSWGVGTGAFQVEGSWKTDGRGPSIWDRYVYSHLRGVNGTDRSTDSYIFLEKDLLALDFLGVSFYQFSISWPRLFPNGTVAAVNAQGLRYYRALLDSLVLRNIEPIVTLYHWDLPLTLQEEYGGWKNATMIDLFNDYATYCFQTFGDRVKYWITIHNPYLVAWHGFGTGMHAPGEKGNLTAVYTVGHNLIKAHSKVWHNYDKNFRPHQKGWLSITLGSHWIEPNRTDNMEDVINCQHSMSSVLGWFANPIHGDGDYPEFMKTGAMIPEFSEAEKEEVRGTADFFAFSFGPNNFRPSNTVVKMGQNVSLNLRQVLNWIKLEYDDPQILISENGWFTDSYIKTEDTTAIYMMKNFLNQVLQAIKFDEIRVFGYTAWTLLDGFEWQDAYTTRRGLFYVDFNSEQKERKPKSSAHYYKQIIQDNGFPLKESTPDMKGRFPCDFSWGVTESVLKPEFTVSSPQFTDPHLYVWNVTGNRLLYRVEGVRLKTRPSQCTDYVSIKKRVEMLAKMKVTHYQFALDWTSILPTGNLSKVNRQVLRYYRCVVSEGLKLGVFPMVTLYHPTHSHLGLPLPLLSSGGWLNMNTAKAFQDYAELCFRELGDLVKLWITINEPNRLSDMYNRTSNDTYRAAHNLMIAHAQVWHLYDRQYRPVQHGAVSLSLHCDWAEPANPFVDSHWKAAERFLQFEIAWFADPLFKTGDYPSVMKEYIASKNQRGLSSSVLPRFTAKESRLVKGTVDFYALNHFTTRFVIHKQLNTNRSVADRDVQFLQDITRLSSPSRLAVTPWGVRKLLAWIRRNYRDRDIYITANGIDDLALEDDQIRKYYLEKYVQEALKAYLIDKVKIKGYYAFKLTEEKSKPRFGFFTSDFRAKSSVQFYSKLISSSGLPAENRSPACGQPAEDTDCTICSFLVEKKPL
T3 sequence 2: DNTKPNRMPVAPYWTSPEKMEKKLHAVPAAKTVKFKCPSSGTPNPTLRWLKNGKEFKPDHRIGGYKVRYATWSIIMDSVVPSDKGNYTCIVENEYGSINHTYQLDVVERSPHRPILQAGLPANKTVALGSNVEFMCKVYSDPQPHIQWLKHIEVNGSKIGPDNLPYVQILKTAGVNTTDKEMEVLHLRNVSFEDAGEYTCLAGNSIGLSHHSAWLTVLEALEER
From the text: To this end, a SPR-based binding competition assay was employed. FGF23 was immobilized onto a SPR biosensor chip, and mixtures of a fixed concentration of binary αKlotho-FGFR1c complex with increasing concentrations of FGF2^ΔHBScore-FGF23^C-tail chimera were passed over the chip. […] To test whether the FGF2^ΔHBScore-FGF21^C-tail chimera can likewise form a ternary complex with FGFR1c and βKlotho, FGF21 was coupled to a SPR biosensor chip, and mixtures of the binary βKlotho-FGFR1c complex with FGF2^ΔHBScore-FGF21^C-tail were passed over the chip. […] To further confirm the binding specificity of the FGF2^ΔHBScore-FGF23^C-tail chimera for the αKlotho-FGFR1c complex, FGF2^ΔHBScore-FGF23^C-tail and βKlotho-FGFR1c complex were mixed at a molar ratio of 10:1, and the mixture was injected over a chip containing immobilized FGF21. […] For the FGF2^ΔHBScore-FGF21^C-tail chimera, we investigated whether it is able to activate FGFR1c in a βKlotho-dependent fashion in cells. HEK293 cells were transfected with βKlotho and then stimulated with FGF2^ΔHBScore-FGF21^C-tail or FGF21.

[5] = molecular target: T2, ligand-binding domain of human FGFR1c …; test: SPR; increasing concentrations of FGFR1c ligand-binding domain passed over immobilised FGF23
From the text: as §1, §2

[6] = molecular target: T4, binary complex of FGFR1c ligand-binding domain with murine αKlotho ectodomain (murine; human, UniProt O35082 35-982; P11362 142-365); test: SPR; FGFR1c ligand-binding domain or αKlotho-FGFR1c complex passed over immobilised FGF23 (FIGS. 10D and 10E)
T4 construct: range 35-982;range 142-365; αKlotho ectodomain was expressed in HEK293 cells; also called αKlotho-FGFR1c complex; αKlotho-FGFR1c; not shown: C-terminal FLAG tag
T4 sequence (looked up) 1: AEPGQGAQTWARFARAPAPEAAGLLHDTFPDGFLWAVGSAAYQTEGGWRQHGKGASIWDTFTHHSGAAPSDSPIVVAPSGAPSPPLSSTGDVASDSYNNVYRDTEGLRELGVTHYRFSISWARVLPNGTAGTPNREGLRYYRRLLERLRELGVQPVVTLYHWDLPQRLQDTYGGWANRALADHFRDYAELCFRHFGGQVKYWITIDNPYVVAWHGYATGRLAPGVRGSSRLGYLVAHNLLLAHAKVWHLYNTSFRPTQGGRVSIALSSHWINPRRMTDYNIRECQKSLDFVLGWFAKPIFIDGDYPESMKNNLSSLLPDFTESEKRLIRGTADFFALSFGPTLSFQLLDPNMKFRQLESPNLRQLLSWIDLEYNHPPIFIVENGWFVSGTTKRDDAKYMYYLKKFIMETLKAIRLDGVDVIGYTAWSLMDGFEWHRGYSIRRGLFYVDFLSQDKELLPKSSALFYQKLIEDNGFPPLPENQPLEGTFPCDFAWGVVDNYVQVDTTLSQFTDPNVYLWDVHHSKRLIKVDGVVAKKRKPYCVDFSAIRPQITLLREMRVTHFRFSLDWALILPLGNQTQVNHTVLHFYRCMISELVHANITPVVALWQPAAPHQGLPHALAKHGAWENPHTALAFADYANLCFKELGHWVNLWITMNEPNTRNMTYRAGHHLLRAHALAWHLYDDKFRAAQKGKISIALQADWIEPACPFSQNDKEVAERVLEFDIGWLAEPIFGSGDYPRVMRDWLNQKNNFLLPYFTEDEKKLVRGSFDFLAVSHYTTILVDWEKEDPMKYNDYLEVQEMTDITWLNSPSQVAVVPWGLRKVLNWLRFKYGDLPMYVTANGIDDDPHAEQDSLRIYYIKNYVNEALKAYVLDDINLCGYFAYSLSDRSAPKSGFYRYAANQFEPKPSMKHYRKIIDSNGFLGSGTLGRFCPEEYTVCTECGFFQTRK
T4 sequence (looked up) 2: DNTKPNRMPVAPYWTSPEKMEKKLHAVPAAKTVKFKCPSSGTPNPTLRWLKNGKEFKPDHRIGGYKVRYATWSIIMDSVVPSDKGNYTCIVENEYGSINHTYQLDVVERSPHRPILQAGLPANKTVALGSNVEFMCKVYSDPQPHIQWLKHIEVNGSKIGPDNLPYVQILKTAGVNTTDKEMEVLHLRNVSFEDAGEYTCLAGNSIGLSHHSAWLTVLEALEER
From the text: as §1, §2

[7] = molecular target: T2, ligand-binding domain of human FGFR1c …; test: SPR; FGF23^C-tail immobilised on the chip, increasing concentrations of FGFR1c ligand-binding domain passed over it
From the text: as §1, §2

## human FGF23 (Y25 to I251), N-terminally hexahistidine-tagged mature form, with R176Q/R179Q (from UniProt Q9GZV9 25-251)
[1]
  Kd: 27.4 nM

B1: human FGF21 (H29 to S209), N-terminally hexahistidine-tagged mature form (ligand)
chain: HPIPDSSPLLQFGGQVRQRYLYTDDAQQTEAHLEIREDGTVGGAADQSPESLLQLKALKPGVIQILGVKTSRFLCQRPDGALYGSLHFDPEACSFRELLLEDGYNVYQSEAHGLPLHLPGNKSPHRDPAPRGPARFLPLPGLPPALPEPPGILAPQPPDVGSSDPLSMVGPSQGRSPSYAS
notes: also called native FGF21; not shown: N-terminal hexahistidine tag
[2]
  Kd: 2520 nM
[3]
  binding result: binds
[4]
  binding result: binds

B2: human FGF23 (Y25 to I251), N-terminally hexahistidine-tagged mature form, with R176Q/R179Q (ligand)
chain: YPNASPLLGSSWGGLIHLYTATARNSYHLQIHKNGHVDGAPHQTIYSALMIRSEDAGFVVITGVMSRRYLCMDFRGNIFGSHYFDPENCRFQHQTLENGYDVYHSPQYHFLVSLGRAKRAFLPGMNPPPYSQFLSRRNEIPLIHFNTPIPRQHTQSAEDDSERDPLNVLKPRARMTPAPASCSQELPSAEDNSPMASDPLGVVRGGRVNTHAGGTGPEGCRPFAKFI
notes: also called native FGF23; wild-type FGF23; not shown: N-terminal hexahistidine tag
[2]
  Kd: 648 nM
[5]
  binding result: binds
[6]
  fold enhancement of affinity (αKlotho-FGFR1c complex against FGFR1c alone): > 20 fold

B3: N-terminally hexahistidine-tagged C-terminal tail peptide of FGF23 (S180 to I251) (peptide)
peptide: SAEDDSERDPLNVLKPRARMTPAPASCSQELPSAEDNSPMASDPLGVVRGGRVNTHAGGTGPEGCRPFAKFI
notes: also called FGF23^C-tail; not shown: N-terminal hexahistidine tag
[7]
  binding result: no binding
